Measured values taken from the supplement of paper PMC7877785.
± gives the uncertainty stated by the source.

Assay: self-splicing fitness, log relative to wild type (ln ratio); higher = more splicing; Tetrahymena group I intron in knt gene, E. coli kanamycin selection, DiMSum; sequences stand for … in CUCUCU…GGAGGGAAAAGUUAUCAGGCAUGCACCUGGUAGCUAGUCUUUAAACCAAUAGAUUGCAUCGGUUUAAAAGGCAAGACCGUCAAAUUGCGGGAAAGGGGUCAACAGCCGUUCAGUACCAAGUCUCAGGGGAAACUUUGAGAUGGCCUUGCAAAGGGUAUGGUAAUAAGCUGACGGACAUGGUCCUAACCACGCAGCCAAGUCCUAAGUCAACAGAUCUUCUGUUGAUAUGGAUGCAGUUCACAGACUAAAUGUCGGUCGGGGAAGAUGUAUUCUUCUCAUAAGAUAUAGUCGGACCUCUCCUUAAUGGGAGCUAGCGGAUGAAGUGAUGCAACACUGGAGCCGCUGGGAACUAAUUUGUAUGCGAAAGUAUAUUGAUUAGUUUUGGAGUACUCGUGGUCG
Summary of the method: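 Colonies from six replicate transformations of E. coli BL21(DE3) were pooled and amplicon-sequenced on an Illumina HiSeq 2500. The library placed an intron with all eight P1ex-region nucleotides randomised inside the knt kanamycin-resistance gene on pET-22b(+), and cells grew overnight at 37°C or 30°C on LB agar with or without 25 μg/mL kanamycin (plus 100 μg/mL carbenicillin, 50 μM IPTG, 0.2% rhamnose). Fitness is the DiMSum error-weighted combination of wild-type-normalised replicate fold changes, kanamycin versus none.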

Sequence	self-splicing fitness (ln) (30 °C)	self-splicing fitness (ln) (37 °C)
CAUAAGCAAUAUUACGUGCU	-3.19 ± 0.3	-1.89 ± 0.27
CUCCAGCAAUAUUACGCUCG	-3.69 ± 0.27	-2.36 ± 0.39
AAAUAGCAAUAUUACGGAGA	-1.86 ± 0.23	-2.11 ± 0.3
GGUUAGCAAUAUUACGGCUC	-2.05 ± 0.33	-0.541 ± 0.46
UGAUAGCAAUAUUACGGUGG	-2.08 ± 0.15	-1.53 ± 0.25
GGUUAGCAAUAUUACGGUAG	-2.79 ± 0.15	-2.28 ± 0.2
CCUUAGCAAUAUUACGUUGA	-3.24 ± 0.21	-3.02 ± 0.24
GUUGAGCAAUAUUACGUUCA	-2.3 ± 0.5	-1.52 ± 0.25
UGGGAGCAAUAUUACGGCCU	-2.18 ± 0.16	-1.9 ± 0.2
CGAGAGCAAUAUUACGGUCC	-2.23 ± 0.23	
AAGCAGCAAUAUUACGGAGU	-3.69 ± 0.13	-1.15 ± 0.1
AAUUAGCAAUAUUACGGUAC	-2.42 ± 0.16	-1.22 ± 0.2
UGGCAGCAAUAUUACGUUAU	-2.25 ± 0.11	-1.91 ± 0.16
AAUCAGCAAUAUUACGAAAC	-1.97 ± 0.19	-0.858 ± 0.16
UAAUAGCAAUAUUACGGGCC	-3.78 ± 0.44	-2.52 ± 0.48
AAGCAGCAAUAUUACGUCCA	-0.662 ± 0.089	-0.156 ± 0.1
GUUUAGCAAUAUUACGCGAG	-1.48 ± 0.17	-0.934 ± 0.16
ACACAGCAAUAUUACGAUCG	-0.738 ± 0.077	-0.032 ± 0.1
UAGGAGCAAUAUUACGCUUC	-2.64 ± 0.35	
UCUCAGCAAUAUUACGCGCG	-2.42 ± 0.21	-1.71 ± 0.24
AUUGAGCAAUAUUACGGCAG	-2.56 ± 0.18	-1.38 ± 0.27
UGGUAGCAAUAUUACGUUUU	-3.96 ± 0.24	-2.32 ± 0.16
UCAUAGCAAUAUUACGAAUU	-3.73 ± 0.32	-2.48 ± 0.24
GGCAAGCAAUAUUACGUUUU	-0.0842 ± 0.054	0.186 ± 0.082
AUAAAGCAAUAUUACGAGUU	-1.9 ± 0.081	-0.509 ± 0.085
UACCAGCAAUAUUACGAGUG	-0.127 ± 0.052	-0.0711 ± 0.067

Sequence	self-splicing fitness (ln) (30 °C)	self-splicing fitness (ln) (37 °C)
UAACAGCAAUAUUACGAUUA	-0.131 ± 0.047	-0.103 ± 0.058
GCCUAGCAAUAUUACGGGAG	-0.724 ± 0.094	-0.391 ± 0.094
GAAUAGCAAUAUUACGACAA	-0.386 ± 0.13	-0.329 ± 0.13
GGCUAGCAAUAUUACGGCUA	0.235 ± 0.32	-0.282 ± 0.42
AGGAAGCAAUAUUACGAGCA	-1.91 ± 0.17	-1.7 ± 0.17
UUAAAGCAAUAUUACGGAGC	-3.99 ± 0.28	-0.662 ± 0.23
CUUUAGCAAUAUUACGAAAU	-2.94 ± 0.36	-1.99 ± 0.41
UCAGAGCAAUAUUACGGCAA	-2.43 ± 0.33	
AUGUAGCAAUAUUACGUCGC		-2.35 ± 0.46
UAAAAGCAAUAUUACGUAUA	-1.82 ± 0.12	-0.643 ± 0.12
ACGAAGCAAUAUUACGAAAU	-3.34 ± 0.2	-1.5 ± 0.17
AUUAAGCAAUAUUACGUAUU	-2.15 ± 0.13	-1.85 ± 0.16
GCGCAGCAAUAUUACGAGGG	-2.78 ± 0.09	-1.84 ± 0.098
GCCAAGCAAUAUUACGUCGG	-2.95 ± 0.18	-2.28 ± 0.24
GUGAAGCAAUAUUACGUCGG	-0.498 ± 0.077	0.15 ± 0.1
AUGUAGCAAUAUUACGACGA	-0.828 ± 0.11	0.039 ± 0.14
AGUGAGCAAUAUUACGAGCA	-0.561 ± 0.11	-0.436 ± 0.11
AAAGAGCAAUAUUACGAGGA	-2.26 ± 0.31	-2.6 ± 0.27
ACUCAGCAAUAUUACGUCUU	-0.765 ± 0.046	0.0108 ± 0.062
UGGAAGCAAUAUUACGCUAU	-2.52 ± 0.18	-2.72 ± 0.29
CUUCAGCAAUAUUACGUGCC	-3.44 ± 0.31	
UAUCAGCAAUAUUACGUCGU	-3.02 ± 0.12	-1.6 ± 0.1
GAUAAGCAAUAUUACGUUCC	-3.71 ± 0.28	-2.94 ± 0.24
GCGUAGCAAUAUUACGUCGC	-2.62 ± 0.13	-1.84 ± 0.21
UGGGAGCAAUAUUACGUUAA	-2.76 ± 0.33	
AGCGAGCAAUAUUACGCGUU	-3.19 ± 0.27	-2.79 ± 0.32

Sequence	self-splicing fitness (ln) (30 °C)	self-splicing fitness (ln) (37 °C)
UGCGAGCAAUAUUACGGAAC		-2.25 ± 0.39
CUAUAGCAAUAUUACGGGUA	-2.54 ± 0.19	-2.34 ± 0.21
UAGGAGCAAUAUUACGAAUU	-2.72 ± 0.3	-2.22 ± 0.48
GAGUAGCAAUAUUACGCGUG	-2.16 ± 0.08	-0.531 ± 0.089
AUCUAGCAAUAUUACGCUUA	-1.44 ± 0.1	-0.971 ± 0.096
GUUUAGCAAUAUUACGAACG	-1.78 ± 0.21	-1.03 ± 0.29
CCAUAGCAAUAUUACGGUCG	-0.61 ± 0.069	-0.291 ± 0.095
AAUCAGCAAUAUUACGCCUC	-1.12 ± 0.13	-0.226 ± 0.17
UACUAGCAAUAUUACGUUAU	-3.58 ± 0.18	-1.45 ± 0.14
UAUAAGCAAUAUUACGCGCU	-0.854 ± 0.18	0.225 ± 0.23
AGGAAGCAAUAUUACGCGGA	-2.32 ± 0.22	-1.29 ± 0.17
GGGCAGCAAUAUUACGCAAG	-1.37 ± 0.24	-0.431 ± 0.23
UCCAAGCAAUAUUACGGUCU	-2.33 ± 0.1	-0.343 ± 0.097
CCUAAGCAAUAUUACGCGAU	-3.49 ± 0.24	-2.31 ± 0.27
UAACAGCAAUAUUACGCAGC	-4.12 ± 0.37	-3.15 ± 0.4
GAUUAGCAAUAUUACGAAGA	-1.25 ± 0.43	-0.415 ± 0.38
UGCCAGCAAUAUUACGUCUC	-4.62 ± 0.29	-2.11 ± 0.25
UACUAGCAAUAUUACGGAUC	-2.66 ± 0.19	-1.7 ± 0.24
UUCCAGCAAUAUUACGUCGA	-0.549 ± 0.099	0.355 ± 0.11
UCCUAGCAAUAUUACGACAG	-3.29 ± 0.25	-2.42 ± 0.31
AGCGAGCAAUAUUACGAGAU	-4.2 ± 0.3	-2.15 ± 0.19
GACUAGCAAUAUUACGAUUG	-2.2 ± 0.087	-2.14 ± 0.15
UAGGAGCAAUAUUACGGAUU	-3.92 ± 0.25	-2.98 ± 0.38
UCACAGCAAUAUUACGGAGA	-1.48 ± 0.1	-0.898 ± 0.11
GCUGAGCAAUAUUACGGUAG	-3.27 ± 0.24	-3.11 ± 0.3
UCGAAGCAAUAUUACGUGGG	-2.34 ± 0.14	-2.18 ± 0.18
